From US20200277373A1, “ANTI-TREM2 ANTIBODIES AND METHODS OF USE THEREOF” (Denali Therapeutics Inc., priority 2017, published 2020)

Legend:
soluble TREM2 (sTREM2) = target: T1, soluble TREM2 (sTREM2) (Homo sapiens, UniProt Q9NZC2); test: Soluble TREM2 (TREM2 shedding) assay in HEK293 TREM2/DAP12 cells; assay type: cell-based; design: key to STREM2: NC = no change; −− = reduced sTREM2; ++ = increased sTREM2; settings: for STREM2: change in sTREM2 levels
T1 construct: expressed in transfected cells
T1 sequence (O43914 22-113 partner, one chain of several): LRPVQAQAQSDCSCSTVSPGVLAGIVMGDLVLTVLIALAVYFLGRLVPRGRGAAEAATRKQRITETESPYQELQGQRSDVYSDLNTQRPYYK
Protocol: HEK293 cells stably expressing human TREM2 and DAP12 were plated onto 96-well plates pre-coated with poly-D-lysine 4-16 hours prior to antibody treatment. Antibody supernatants or control antibodies were diluted into fresh complete media and added onto cells in triplicate. Cells were incubated with antibody containing media for 18 hours prior to removal of the cell supernatant for assay by TREM2 ELISA. Samples and standards were diluted 1:10 into blocking buffer (3% BSA/TBST) in the assay plate. Briefly, MSD small spot streptavidin plates were coated with biotinylated anti-hTREM2 polyclonal antibody (R&D Systems) overnight at 4° C. or 1 hour at room temperature. Plates were then blocked overnight at 4° C., or 1 hour at room temperature, with blocking buffer, 3% BSA/TBST. Plates were washed three times with TBST in a Biotek plate washer (used for all washes) prior to addition of diluent (blocking buffer) and denatured supernatants from cell culture. A TREM2-His protein diluted in 3% BSA/TBST was used as a standard for absolute quantification. Following 1 hour incubation at room temperature, plates were washed with TBST. The primary detection antibody, sulfo-tagged goat anti-human TREM2 (R&D Systems), diluted in 3% BSA/TBST was added and incubated for 1 hour at room temperature. After washing with TBST, MSD plates were developed using 2×MSD read buffer T, followed by detection using an MSD Sector plate reader. MSD values were converted to absolute quantities of sTREM2 by fitting a standard curve using Prism 7.0 software (Graphpad). Modulation of TREM2 shedding was represented as a ratio to cells cultured with no specific TREM2 antibody in the media.

TREM2 [1] = target: T2, TREM2 (Homo sapiens, UniProt Q9NZC2); test: TREM2 PAM/pSyk assay on human macrophages; assay type: cell-based
T2 construct: macrophage cells that endogenously express TREM2; endogenous in cells; host or cells: primary human monocyte-derived macrophages from donor blood
T2 sequence (Q9NZC2 19-230): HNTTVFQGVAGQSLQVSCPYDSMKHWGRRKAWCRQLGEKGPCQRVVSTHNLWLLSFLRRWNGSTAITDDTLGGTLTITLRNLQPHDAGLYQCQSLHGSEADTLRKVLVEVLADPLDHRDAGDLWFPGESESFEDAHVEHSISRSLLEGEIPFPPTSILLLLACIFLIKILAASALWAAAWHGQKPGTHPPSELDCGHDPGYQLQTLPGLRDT
Protocol: (§1) Human macrophages were differentiated from donor blood using a human monocyte enrichment cocktail (Stem Cell Technologies) and culturing monocytes with human mCSF for five days in macrophage media (RPMI+10% Hyclone FBS+Glutamax+Pen/Strep+non-essential amino acids+sodium pyruvate). On the fifth day, the human macrophages were scraped from the flasks and were re-plated at 100,000 cells/well on a 96-well poly-D-lysine-coated plate in the macrophage media (without mCSF). The cells were incubated for 24 hours to adhere, then the media was removed.
Antibodies pre-mixed with lipid vesicles comprised of 70% DOPC and 30% POPS (made according to the procedure for making vesicles described above) diluted in HBSS were immediately added to the cells, and allowed to incubate for 5 minutes at 37° C. The liposome/antibody solution was removed, and 35 μL lysis buffer (Cell Signaling Technologies, CST) was added using the liquid handler. The lysate was then incubated at 4° C. for 30 minutes, then either frozen at −80° C. or immediately carried forward to a pSyk AlphaLISA assay as described above. […] The results of the assay are shown in FIG. 9B and in Table 8 below.

TREM2 [2] = target: T2, TREM2; test: TREM2 pSyk antagonist assay on human macrophages (antibody pre-incubation, then liposomes); assay type: cell-based; settings: FIGS. 9C-9D, 30 nM antibody
Protocol: as §1
Antibodies diluted in RPMI alone were immediately added to the cells, and allowed to incubate for 30 minutes at 37° C. The antibodies were then removed. Lipid vesicles comprised of 70% DOPC and 30% POPS (made according to the procedure for making vesicles described above) in HBSS were added to the cells and incubated […] at 37° C. The liposome/antibody solution was removed, and 35 μL lysis buffer (Cell Signaling Technologies, CST) was added using the liquid handler. The lysate was then incubated at 4° C. for 30 minutes, then either frozen at −80° C. or immediately carried forward to a pSyk AlphaLISA assay as described above.

TREM2 [3] = target: T3, TREM2 (Homo sapiens, UniProt Q9NZC2); test: FACS binning on human TREM2-HEK cells (competition with R&D antibody); assay type: binding; settings: epitope bin, 100 nM antibody
T3 construct: expressed in transfected cells
Protocol: HEK293 overexpressing human TREM2 (H6) were harvested by 0.05% trypsin and incubated at 37° C. incubator for 2 hours for surface TREM2 recovery. After incubation, cells were washed with 1×PBS and FACS buffer (PBS+0.5% BSA) with human Trustain FcX solution (Biolegend, Cat #422302) was added at a density of 10^6/mL. Cells were seeded at 100,000 cells per well in a 96-well round-bottom and incubated 20 minutes at room temperature. After incubation, anti-TREM2 antibodies (100 nM) were added to the cells and the cells were incubated for 45 minutes on ice. After incubation, rat anti-h/mTREM2-APC antibody (1:100, R&D, Cat # FAB17291A) was added to the cells, and the cells were incubated for 30 minutes on ice. After incubation, cells were washed with FACS buffer three times and resuspended in 10 μL FACS buffer, then analyzed by flow cytometry (BD FACSCanto II, San Jose, Calif.). 20,000 events were obtained for each sample. The ability to compete with R&D antibody was determined by MFI analysis compared to isotype or buffer control wells.
T3 sequence (O43914 22-113 partner, one chain of several): as the sequence (O43914 22-113 partner, one chain of several) above

hTREM2 = target: T4, hTREM2 (Homo sapiens, UniProt Q9NZC2); test: Octet binning (competition with R&D antibody on biotinylated TREM2-His); assay type: binding; settings: epitope bin, 100 nM
T4 construct: The ecto domain (residues 19-172) of TREM2 (UniProtKB—Q9NZC2); secretion signal of mouse Ig kappa chain V-III (P01661 aa 1-20) (N); made in house; host or cells: Expi293F
T4 sequence (Q9NZC2 19-172): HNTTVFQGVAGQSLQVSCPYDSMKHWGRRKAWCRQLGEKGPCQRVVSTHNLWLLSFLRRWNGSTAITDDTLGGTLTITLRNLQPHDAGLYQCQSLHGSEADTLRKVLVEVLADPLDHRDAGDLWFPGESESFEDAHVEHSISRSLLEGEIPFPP
Protocol: Competition with R&D antibody was done by Octet Red using biotinylated human Trem2-His protein generated in house. Biotinylated human TREM2-His protein was captured on a streptavidin tip, and the tip was then incubated in either 100 nM of R&D Ab or buffer for 3 minutes, followed by incubation for 3 minutes in 100 nM of testing hybridoma. The difference of hybridoma binding curve with or without pre-binding to R&D antibody was analyzed to determine the epitope.

Molecule	STREM2 (soluble TREM2 (sTREM2))	liposome mediated pSyk signaling after antibody pre-incubation (TREM2 [2])	Bin by FACS (TREM2 [3])	Bin by Octet (hTREM2)	further results
RS9.F10: anti-TREM2 antibody clone; likely VH SEQ ID NO:6, VL SEQ ID NO:7 (antibody, V domains shown) VH: QVQLQQPGAELVKPGASVKLSCKASGYTFTSYWMHWVKQSPGRGLEWIGRSDPTTGGTNYNEKFKTKATLTVDKPSSTAYMQLSSLTSDDSAVYYCVRTSGTGDYWGQGTSLTVSSAKTTAPSVYPLAPVCGGTTGSSVT VL: DVVMTQTPLSLPVSLGDQASISCRSSQSLVHNNGNTFLHWYLQKPGQSPKLLIYKVSNRFSGVPDRFSGSGSGTDFTLKISRVEAEDLGVYFCSQTTHVPPTFGGGTKLEIKRADAAPTVSIFPPSSEQLTSGGASVVCF	NC				
7B10.A2: anti-TREM2 antibody clone; VH SEQ ID NO:306, VL SEQ ID NO:310 (antibody, V domains shown) VH: EVQLQQSGPELVKPGASVKMSCKASGYTFTDYNMHWVKQSHGKSLEWIGYINPNNGGTTYNQKFKGKATLTVNKSSSTAYMELRSLTSEDSAVYYCATYNNHYFDSWGQGTTLTVSS VL: DIQMTQTTSSLSASLGDRVTISCSASQGISNYLNWYQQKPDGTVKLLIYYTSNLHSGVPSRFSGSGSGTDYSLTISNLEPEDIATYYCQQYSNLPYTFGGGTKLEIK					effect on lipid ligand activation of TREM2 (in words) (TREM2 [1]; FIG. 9B, human macrophages): synergistic with lipid TREM2 activators; Slope + Liposome (TREM2 [1]; pSyk, 10 nM antibody with 0, EC20, EC50, EC80 PS/PC liposomes, liposome-alone signal subtracted): 5,370
26D2.D1: anti-TREM2 antibody clone; VH SEQ ID NO:16, VL SEQ ID NO:27 (antibody, V domains shown) VH: EVQLQQSGPELVKPGASVKMSCKASGYTFTSYVMHWVKQKPGQGLEWIGYINPYTDGTKYNEKFKGKATLTSDKSSSTAYMDLSSLTSEDSAVYYCARGEVRRYALDYWGQGTSVTVSS VL: DIQMTQSSSSFSVSLGDRVTITCKASEDIYNRLAWYQQKPGNAPRLLISGATSLETGVPSRFSGSGSGKDYTLSITSLQTEDVATYYCQQYWSTPWTFGGGTKLEIK	NC	blocked	3	1-2	
42E8.H1: anti-TREM2 antibody clone; VH SEQ ID NO:20, VL SEQ ID NO:31 (antibody, V domains shown) VH: DVQLQESGPGLVKPSQSLSLTCTVTGYSITSDYAWNWIRQFPGNKLEWMGYINYSGRTIYNPSLKSRISITRDTSKNHFFLQLISVTTEDTATYYCARWNGNYGFAYWGQGTLVTVSA VL: DVVMTQNPLSLPVSLGDQASISCRSSQSLVHINGNTYLHWYLQKPGQSPKLLIYKVSNRFSGVPDRFSGSGSGTDFTLKISRVEAEDLGVYFCSQTTHALFTFGSGTKLEIK	−−		1	1	TREM2 shedding (in words) (soluble TREM2 (sTREM2); FIG. 4, 18 hours): blocks TREM2 shedding
26E2.A3: anti-TREM2 antibody clone; VH SEQ ID NO:17, VL SEQ ID NO:28 (antibody, V domains shown) VH: QVHLQQSGSELRSPGSSVKLSCKDFDSEVFPISYMSWIRQKPGHGFEWIGDILPSIGGRIYGVKFEDRATLDADTVSNTAYLELNSLTSEDSAIYYCARKDYGSLAYWGQGTLVTVSA VL: DVVMTQTPLSLPVSLGDQASISCRSSQSLVHINGNTYLQWFLQKPGQSPKLLIYKVSNRFSGVPDRFSGSGSGTAFTLKISRVEAEDLGVYFCSQSTHVPYTFGGGTKLEIK		enhanced			
49H11.B1: anti-TREM2 antibody clone; VH SEQ ID NO:21, VL SEQ ID NO:32 (antibody, V domains shown) VH: DVQLQESGPGLVKPSQSLSLTCTVTGYSITSDYAWNWIRQFPGNRLEWMGYISFSGSTSYNPSLKSRISITRDTSKNQFFLQLNSVTTEDTATYYCARWNGNYGFAYWGQGTLVTVSA VL: DVVMTQTPLSLPVSLGDQASISCRSSQSLVHINGNTYLHWYLQKPGQSPKLLIYKVSNRFSGVPDRFSGSGSGTDFTLKISRVEAEDLGVYFCSQSTHVTFTFGSGTKLEIK			1	1	
